Experimental data published in patent US20020177689A1.

Molecular target: Rhodamine green-Gly-Gly-dPhe-Leu-Arg-Arg-Val-Cys(QSY 7)-betaAla-NH2

recombinant human neutral endopeptidase (NEP) (from UniProt P08473) (enzyme)
Km (steady state kinetics, FRET cleavage assay): 8 µM
